Data as given in the nanobody polyreactivity screen of Harvey et al. (2022).

Experiment: yeast display, Sf9 membrane polyspecificity reagent, FACS + sequencing; frameworks hold sequencing errors
Outline: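 A synthetic nanobody library was expressed on Saccharomyces cerevisiae BJ5465 by galactose induction for 36–48 hours. The library was stained for 1 hour at 4 °C with 10% biotinylated, detergent-solubilized Sf9 membrane reagent and enriched with streptavidin microbeads before FACS. Low and high (top ~1%) gates were set on anti-HA fluorescence for expression and streptavidin fluorescence for reagent binding, and each polyreactivity label reflects the gate of origin.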

## QVQLVESGGGLVQAGGSLRLSCAASGSTFTAYAMGWYRQAPGKERELVADISDSGGSTYYADSVKGRFTISRDNAKNTVYLQMNSLKPEDTAVYYCAVDVRAYVVSKFDSWGQGTQVTVSS
  polyreactivity (PSR sort gate): low polyreactivity

## QVQLVESGGGLVQAGGSLRLSCAASGRIFYWYVMGWYRQAPGKERELVATIRYSGGNTYYADSVKGRFTISRDNAKNTVYLQMNSLKPEETEVYYCAAGSLYWGRSPTRGGQGGYWGQGTQVTVSS
  polyreactivity (PSR sort gate): high polyreactivity

## QVQLLESGGGLVQAGGSLRLSCAAAGIIFGYYTMGWYRQAPGNERELVAAITTTGGSTYYADSVKGRCTISRDNAKNTVYLQMNSLKPEDTAVYYCAARKWSHRTISDYWGQGTQVTVSS
  polyreactivity (PSR sort gate): high polyreactivity

## QVQLVESGGGLVQAGGRLRLSCAASGSIVGLYVMGWYRQAPGKERELVATITSGGSTYYADSVKGRFTISRDNAKNTDYLQMNSLKPEDTAVYYSAADPQDAADLPDLFYDYDYWGQGTQVTVSS
  polyreactivity (PSR sort gate): low polyreactivity

## QVQLVESGGGLVQAGGSLRLSCAASGRTFTSNAMGWSRQAPGKERELVAAIDDGGSTNYADSVKGRFTISRDNAKNTVYLQMNSLKPEDTAVYYCNAPITWQYRGFRRRFDYWGQGTQVTVSS
  polyreactivity (PSR sort gate): low polyreactivity

## QVQLEESGGGLVQAGGSLRLSCAASGSTFVYNPMGWYRQAPGKETELVAVITYRGGRTYSADSVKGRFTISRDYAKNSVYLQMNSLKPEDTAVYYCAKRVYGSKVRGYDYWGQGTQVTVSS
  polyreactivity (PSR sort gate): high polyreactivity

## QVQLVESCGGLVQAGGSLRLSCADSGLTMYGYARGWYRHAPGNERELVATLTRRGGSTYYADSVKGRFTISRDNAKNTVYLQMNSLKPEDPAVYYCAATYQHQNPQGVFSGGYYYWGQGTQVTVAS
  polyreactivity (PSR sort gate): high polyreactivity

## QVQLVESGGGLVQAGGSLRLSCAASGSTFTYYAMGWYRQAPGKERELVAAISRSGGNTYYADSVKGRFTISRDNAKNTVYLQMNSLKKEDTAVYYCAAYRQVYGFDYWGQGTQVTVSS
  polyreactivity (PSR sort gate): high polyreactivity

## QVQLVESGGGLVQAGGSLRLSCAASGYILFAYAMGWYRQAPGKERALVATITTSGGITYYADSVKGRFTISRDNAKNTVYLQMNSLKPEDTAVYYCAAAEGGGLVTYDYWGQGTQVTVSS
  polyreactivity (PSR sort gate): low polyreactivity

## QVQLVESGGGLVQAGGSLRLSCAASGSTFWVNAMGWYRQAPGKERELVAAITVRGTSTYYADSVKGRFTISRDNAKNTVYLQMNSLKPEDTAVYYCAADTPSNSHDYWGQGTQVTVSS
  polyreactivity (PSR sort gate): low polyreactivity

## QVQLVESGAGLVQAGGSLRLSFAASGRTFVYNAMAWYRQAPGKERELVAAIDGGGDRTYYADSVKGRFTISRDNAKNTVYLQMNSLKPEDTAVYYCARDPGDTYYYSYPEGDYWGQGTLVTVSS
  polyreactivity (PSR sort gate): low polyreactivity

## QVQLVESGGGLVQAGGSLRLSCAASGSTFERYAMGWYRQAPGKKGSWLPYADSVKGRFTISRDNAKNTVYLQMNSLKPEDTAVYYCNAERYSPTLNLDRGWEYDYWGQGTQVTVSS
  polyreactivity (PSR sort gate): low polyreactivity

## QVQLVESGGGLVQAGGSLRLSCAASGSTFTYYAMGWYRQAPGKERELVAAISRSGGNTYYADSVKGRFTISRDNAKNTVYLQMNSLKPEDTAVYYCAAYRQVYGFDYWGQGTQVTVSS
  polyreactivity (PSR sort gate): high polyreactivity

## QVQLVESGGGLVQAGGSLRLSSAPSGSTFYGYSRGWYRPAPGKERELVAAISSRGGSTKYADSVKGRFTISRDNAKNTVYLQMNSLKPEDTAVYYCAATSRSSRRYYYWGQGTQVTVSS
  polyreactivity (PSR sort gate): high polyreactivity

## QVQLVESGGGLVQAGGSLRLSCAASGRTFSGNAMGWYIQAPRKDRELVAAISSGGSTNYADSVKGRFTISRDNAKNTVYLQMNSLEPEDTAVYYCAADEWRFPSYAYYYWGQGTQVTVSS
  polyreactivity (PSR sort gate): low polyreactivity

## QVQHVESGGGLVQARGSLRLTCAASGLILSSNAMGWYRQAPGKERELVAAITWDGDRTYADSVKGRFTISRDNAKNTVYLQRNSLKPEDTAVYYCAADKQYYWYDWSYDYWGQGTQVTVSS
  polyreactivity (PSR sort gate): low polyreactivity

## QVQLVESGGGLVQAGGSLRLSCAASGRTFRYNAMGWYRQAPGKERELVASISWRGGSTYYADSVKGRFTISRDNAKNTVYLPMNSLKPEDTAVYYCAADAAHSEYDDWGQGTQVTVSS
  polyreactivity (PSR sort gate): high polyreactivity

## QVQLVESGGGLVQAGGSLRLSCAASGGIFRPYAMGWYRQAPGKERELVAAITYNGGSTYYADSVKGRFTISRDNAKNTVYLQMNSLKPEDTAVYYCAAVSYSGPYAYEYWGQGTQVTVSS
  polyreactivity (PSR sort gate): high polyreactivity

## QVQLVESRGGLVQAGGSLRLSCAASGFIFVSYTMGWYRQAPGKERDLVATITLSDGSTYYADSVQGRFTISRDNAKNTVYLQMNSLKPEDTAVYSGNKDKVVVRYDYWGQGTQVTVSS
  polyreactivity (PSR sort gate): low polyreactivity

## QVQLVESGGGLVQAGGSLRLSCAASGFTFIRNGMGWYRQAPGKERELVAAITTSGSGTYYADSVKGRFTISRDNAKNTVYLQMNSLKPEDTAVYYCATDYRYRSYSRGAHDYWGQGTQVTVSS
  polyreactivity (PSR sort gate): low polyreactivity

## QVQLVESGGGLVQEGGSLRLSCAASGITFAFYTMGRYRQAPGKERELVAAISYSGGRTYYADSVKGRFTISRDNAMNTVYLQMNSLKAEDTAVYYCAVETWWDYDYWGQGTQVTVSS
  polyreactivity (PSR sort gate): high polyreactivity

## QVQLVESGGGLVQAGGSLRLSCAASGLIFSVNAMGWYRQAPGKERELVAAITWSSGRTYYADSVKGRFTISRDNAKNSVYLQMISLKPEDTAVYYCAGVSYWYGLMYYWGQGTQVTVSS
  polyreactivity (PSR sort gate): high polyreactivity

## QVQLVESGGGLVQAGGSLRLSCAATGNIFTPYTMGWYRQAPGKERELVASINNAGTTKYADSVKGRFTISRDNAKTTVYLQMNSLKPEDTAVYYCAAQRRHALSSYPKHYYWGQGTQVTVSS
  polyreactivity (PSR sort gate): low polyreactivity

## QVQLVESGGGLVQAGGSLRLSCAASGFIFSRYDMGWYRQAPGKERELVAAIDWSGDSTYYADSVKGRFTISRDNAKHTVYLQMNSLQPEDTAVYYCAAYYYWGQGTQVTVSS
  polyreactivity (PSR sort gate): low polyreactivity

## QVQLVESGGGLVQAGGSLRLSCAASGSIFDGNAMGWYRQAPGKERELVAAISRRGGSTYYADSVKGRFTISRDKAKNTVYLQMNSLKPEDTAVYYCNAYLSYFDGNYWGQGTQVTVSS
  polyreactivity (PSR sort gate): high polyreactivity

## QLQLVESAGGLVQAGGSLRLRCAASGSTFSSYAMGWYRQAPWKERELVADITSSGGSTYYADSVKGRFTISRDNAKNSVYLQMNSLTPEDTAVYYCAADDVIFWLYYYWGQGTQVTVSS
  polyreactivity (PSR sort gate): low polyreactivity

## QVQLVESGGGLVQAGGTLRISCAASGSIFYLYAMGWYRQAPGKERELVAGIRYRGGSTYYADSVKGRFTISRDNAKNTVYLQMNSLKPEDTAVYYCAAEYGDGRYWSYDYWGQGTQVTVSS
  polyreactivity (PSR sort gate): high polyreactivity

## QVQLVESGGGLDQAGGSLRLSCAASGRTFYTYVMGWYRQAPGKEREFLAAITYSGGSTYYADSVKGRFTISRDNAKNTVYLQMNSLKTEDSAVYYCNAEWTYSEWYGQYLEFDYWGQGTQVTVSS
  polyreactivity (PSR sort gate): high polyreactivity

## QVQLVETGGGLVQAGGSLRLSCAASGLTFYDYAMGWYRQAPGKERELVADIDFNGGSTSYADSVKGRFTISRDNAKNTVYLQMNSLKPEDTAVYDCNTRDRGDVVTGLDYWGQGTQVTVSS
  polyreactivity (PSR sort gate): low polyreactivity

## QVQLVESGGGLVQGGGSLRLSCAASGRIFTFYAMGWSRPAPGKARELVASITGGGNTYYADSVKGRFTISRDNAKNTVNLQMNSLKPEDTAVYYCAADDGYRELDYWGQGTQVTVSS
  polyreactivity (PSR sort gate): low polyreactivity

## QVQLVESGGGLVQAGGSLRLRCADSGSIFHCNAMGWNRQAPGKERELVAGITTSGGTTYYADTVKGRFTISRDNAKNTVYVQMKSLKPEATAVYYCAARIIRWRPRWPSYGKYDYWGQVTQVTVSS
  polyreactivity (PSR sort gate): low polyreactivity

## QVQLVESGGGLVQAGGSLRLSCAASGFAFSYYAMGWYRQAPGKEREFVASIDWSGGSTYYADSVKGRFTISRDNAKNTVFLQMNSLKPEDTAVYYCAAELDYFPGYDYWGQGTQVTVSS
  polyreactivity (PSR sort gate): low polyreactivity

## QVQLQESGGGLVQAGGSLRLTCAASGNISVTGFMGCYRQAPGKERELVASIGIGGTTYYADSVKGRFSISRDNAKNTVYLEMHSLKPEDTAVYYCAARYLYYAYSYWGQGTQVTVSS
  polyreactivity (PSR sort gate): low polyreactivity

## QVQLVESGGGLVQAGGSLRLSCASSGRTFYIYAIGWYRQAAGKERELVASISRGGSTTYADSVKGRFTISRDNAKNTVYLQMNSLKPEDTAVYYCNARAYYDMNQWGQGTQVTVSS
  polyreactivity (PSR sort gate): low polyreactivity

## QVQIVESGGGLVEAGGSLRLSCAASGRTFWYIAMGWYRQSPGKASELVAAISYTGSRTYYADSVKGRFTISRYNAKNTVYLQMNSLKPDDTAVYYCNALARRPDAYAHYGYWGQGTQVSVSS
  polyreactivity (PSR sort gate): high polyreactivity

## QVQLVESGGGLVQAGGSLRLSCAPSGRIFDYYAMGWYRQAPGKESELVAAISGSGGSTYYADSVKGRFTISRDNAKNTVYLQMNSLKPEHTAVYYCAYGYLYCYDYWGQGTQVTVSS
  polyreactivity (PSR sort gate): low polyreactivity

## QVQLVESGGGLVQAGGSLRLSCASSGITFWSYAMVWYRQAPGKERELVAAISRGGDSTYYADSVKGRFTISRDNAKNTVYLQMNSLKPEDTAVYDCAALRPREEYYWGHGTQVTVSS
  polyreactivity (PSR sort gate): high polyreactivity

## QVQLVESGGGLVQAGGSLRLSCAASGLIFSNYAMGWYRQAPGKERELVAAITRTATTKYADSVKGRFTISRDNAKNTVYLQMNSLKPEDSAVYYCAARSYHDRYNSWTDRYGFWGQGTQVTVSS
  polyreactivity (PSR sort gate): high polyreactivity

## HVQLGESGGGLVQAGGSLRLSCAASGFIFQRYAMGWDRQAPGKERELVAAITTSGGRTYYADSVKGRFTMSRDNAKKTVYLQMNSLKPEDTAVYYCAAEGSHNSEYWGQGTQVTVSS
  polyreactivity (PSR sort gate): high polyreactivity

## QVQLVESGGGLVQAGGSLRLSCAASGRIFSRYAMGWYRQAPGTERELVAAINKSGGSTYYADSVKGRFTISRDNAKNTVYLQMNSLKPEDTAVYYCNAVYYWYKGDYWGQGTQVTVSS
  polyreactivity (PSR sort gate): high polyreactivity

## QVQLVESGVGLVQAGGSLRLSCAASGRTFYVYAMGWYRQAPGKERELVAAISLGGGSTYYADSVKGRFTNSRDNGKNTVYLQMNSLKPEDTAVYYCAADITRYRLGRDYWGQATQVTVSS
  polyreactivity (PSR sort gate): low polyreactivity

## QVQLVESGGGLVQAGGSLRLSCAASGFIFYRYAMGWYRQAPGKERELVAVISGSGGRTYYADSVKGRFTISRDNAKNTVYLQMNSLKPEDTAVYYCAAVTRRRYYGHIYGYWGQGTQVTVSS
  polyreactivity (PSR sort gate): high polyreactivity

## QVQLVESGGGLVQAGGSLRLSCAASGFTFYYNAMGWYRQAPGKERELGASITRSGGRTYYADSVKGRFTISRDYAKNTVYLQMNSLKPEDTAVYYCARRYPGGYYWGQGTHVTVSS
  polyreactivity (PSR sort gate): high polyreactivity
